Where two headings read alike, the source gives them in different places.
Legend:
[1] = target: T1, Shiga toxin 2a (Stx2a) holotoxin (Escherichia coli (Shiga …, UniProt P09385 23-319; P09386 20-89)
T1 sequence (P09385 23-319 limits assumed, one chain of several): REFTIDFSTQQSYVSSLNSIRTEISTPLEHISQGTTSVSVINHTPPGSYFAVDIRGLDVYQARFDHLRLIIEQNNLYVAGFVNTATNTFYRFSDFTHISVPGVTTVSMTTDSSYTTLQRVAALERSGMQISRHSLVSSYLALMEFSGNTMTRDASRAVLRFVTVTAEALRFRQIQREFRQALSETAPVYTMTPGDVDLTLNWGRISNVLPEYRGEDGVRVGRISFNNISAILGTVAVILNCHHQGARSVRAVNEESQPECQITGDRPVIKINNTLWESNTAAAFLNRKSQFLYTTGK

[2] = target: T1, Shiga toxin 2a (Stx2a) holotoxin; test: cell-based or functional assay
[3] = target: T2, Stx2a-A1 fragment with a C-terminus 6xHis tag (Escherichia coli (Shiga …, UniProt P09385 23-272)); test: ELISA at pH 6.0, plate coated with 4 ug/mL Stx2a-A1
[4] = target: T2, Stx2a-A1 fragment with a C-terminus …; test: ELISA at pH 7.4, plate coated with 4 ug/mL Stx2a-A1
[5] = target: T1, Shiga toxin 2a (Stx2a) holotoxin; test: BLI (BLItz), biotinylated Stx2a holotoxin on streptavidin sensor, apparent KD
[6] = target: T1, Shiga toxin 2a (Stx2a) holotoxin; test: screen of E. coli lysates for Stx2a binding after off-rate selection
[7] = target: T1, Shiga toxin 2a (Stx2a) holotoxin; test: ELISA, plate coated with full-length Stx2a
[8] = target: T1, Shiga toxin 2a (Stx2a) holotoxin; remark: listed apart in the source
[9] = target: T1, Shiga toxin 2a (Stx2a) holotoxin; remark: listed apart in the source
[10] = target: T1, Shiga toxin 2a (Stx2a) holotoxin; test: BLI (BLItz), biotinylated Stx2a holotoxin on streptavidin sensor
[11] = target: T1, Shiga toxin 2a (Stx2a) holotoxin; remark: listed apart in the source
[12] = target: Shiga toxin 2a (Stx2a) holotoxin (Escherichia coli (Shiga …, UniProt P09385 23-319; P09386 20-89); test: cell-based or functional assay; remark: listed apart in the source
Target sequence in this assay (P09385 23-319, chain 1 of 2): as the sequence (P09385 23-319 limits assumed, one chain of several) above
Target sequence in this assay (P09386 20-89, tags left off, chain 2 of 2): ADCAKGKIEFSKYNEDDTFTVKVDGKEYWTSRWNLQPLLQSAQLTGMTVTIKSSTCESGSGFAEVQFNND

T2 sequence (P09385 23-272, tags left off): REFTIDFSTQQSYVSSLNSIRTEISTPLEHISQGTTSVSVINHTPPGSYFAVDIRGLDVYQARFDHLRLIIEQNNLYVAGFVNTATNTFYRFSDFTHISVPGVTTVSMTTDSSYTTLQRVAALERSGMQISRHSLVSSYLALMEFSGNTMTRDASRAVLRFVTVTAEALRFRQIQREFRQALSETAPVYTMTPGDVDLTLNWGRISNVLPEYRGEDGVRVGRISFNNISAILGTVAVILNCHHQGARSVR

B1: DARPin HT (designed binder)
chain: MGSSHHHHHHSSGLVPRGSHMEQKLISEEDLGSDLGKKLLEAARAGQDDEVRILMANGADVNAGDPFGFTPLHLAAMFGHLEIVEVLLKNGADVNAHDEYGFTPLHLAAVVGHLEIVEVLLKNGADVNACDNQGGTPLHLAAHTGHLEIVEVLLKHGADVNAQDKFGKTAFDISIDNGNEDLAEILQSSS
**Q.** B1 was tested. Which “EC50 (read off the curve)” value [1] did it give?
**A.** The value was roughly 1 nM.

**Q.** What about the “EC50 of Stx2a neutralization, Vero E6 toxin challenge assay” value [2] of the same binder?
**A.** The value was 1900 nM.

**Q.** What about the EC50 [3] of the same binder?
**A.** Its EC50 is 1.2 nM.

**Q.** And the EC50 [4]?
**A.** Its EC50 is 1.2 nM.

**Q.** What about the Kd [5] of the same binder?
**A.** The Kd was 409 nM.

B2: DARPin Off-rate #27 (designed binder)
chain: MGSSHHHHHHSSGLVPRGSHMEQKLISEEDLGSDLGKKLLEAARAGQDDEVRFLMANGADVNAGDPFGFTPLHLAAMFGHLEIVEVLLKNGADENAHEEYGFTPLHLAAVVGHLEIVEVLLKNGADVNACDNQGGTPLHLAAHTGHLEIVEVLLKHGADVNAQDKFGKTAFDISIDNGNEDLAEILQSSS
**Q.** Does B2 bind [6]?
**A.** Result: binds

B3: DARPin Off-rate #28 (designed binder)
chain: MGSSHHHHHHSSGLVPRGSHMEQKLISEEDLGSDLGKKLLEAARAGQDDEVRILMANGADVNAGDPFGFTPLHLAAMYGHLEIVEVLLKNGADVNAHEEYGFTPLHLAAVVGHLEIVEVLLKNGADVNACDNQGGTPLHLAARIGHLEIVEVLLKHGADVNAQDKFGKTAFDISIDNGNEDLAEILQSSS
**Q.** Does B3 bind [6]?
**A.** Result: binds

B4: DARPin RI (designed binder)
chain: MGSSHHHHHHSSGLVPRGSHMEQKLISEEDLGSDLGKKLLEAARAGQDDEVRILMANGADVNAGDPFGFTPLHLAAMFGHLEIVEVLLKNGADVNAHDEYGFTPLHLAAVVGHLEIVEVLLKNGADVNACDNQGGTPLHLAARIGHLEIVEVLLKHGADVNAQDKFGKTAFDISIDNGNEDLAEILQSSS
**Q.** How did the “EC50 (read off the curve)” value [1] turn out when B4 was run?
**A.** The value was roughly 1 nM.

**Q.** What about the “fold improved toxin neutralization activity in the Vero E6 toxin challenge assay” value [2] of the same binder?
**A.** The value was roughly 4 fold.

**Q.** What about the “fold improved toxin-binding ability in ELISA (against parent 10B)” value [7] of the same binder?
**A.** The value was roughly 8 fold.

B5: DARPin 10B (designed binder)
chain: MGSSHHHHHHSSGLVPRGSHMEQKLISEEDLGSDLGKKLLEAARAGQDDEVRILMANGADVNAGDPFGFTPLHLAAMFGHLEIVEVLLKNGADVNAHDEYGFTPLHLAAVVGHLEIVEVLLKNGADVNACDNQGGTPLHLAAVDGHLEIVEVLLKHGADVNAQDKFGKTAFDISIDNGNEDLAEILQSSS
**Q.** With B5 as the binder, how does the “EC50 (read off the curve)” value [8] read?
**A.** Its value is roughly 4 nM.

**Q.** And the Kd [9]?
**A.** Its Kd is 3540 nM.

**Q.** And the “EC50 of Stx2a neutralization, Vero E6 toxin challenge assay” value [2]?
**A.** Its value is 2700 nM.

**Q.** What about the “EC50 of Stx2a neutralization, Vero E6 toxin challenge assay (cell viability)” value (shortened to “EC50 of Stx2a neutralization … (cell viability)”) [2] of the same binder?
**A.** Its value is greater than 1000 nM.

**Q.** And the EC50 [3]?
**A.** Its EC50 is 3.8 nM.

**Q.** And the EC50 [4]?
**A.** Its EC50 is 3.7 nM.

**Q.** And the Kd [5]?
**A.** Its Kd is 3450 nM.

**Q.** What about the Kd [10] of the same binder?
**A.** The Kd was 3540 nM.

B6: DARPin Off-rate #26 (designed binder)
chain: MGSSHHHHHHSSGLVPRGSHMEQKLISEEDLGSDLGKKLLEAARAGQDDEVRILMANGADVNAGDPFGFTPLHLAAMFGHLEIVEVLLKNGADVNAHEEYGFTPLHLAAVVGHLEIVEVLLKNGADVNACDNQGGTPLHLASHTGHLEIVEVLLKHGADVNAQDKFGKTAFDISIDTGNEDLAEILQSSS
**Q.** Does B6 bind [6]?
**A.** Result: binds

B7: DARPin #3 (designed binder)
chain: MGSSHHHHHHSSGLVPRGSHMEQKLISEEDLGSDLGKKLLEAARAGQDDEVRILMANGADVNACDSNGRTPLHLAAVRGHLEIVEVLLKNGADVNAWDVIGKTPLHLAADGGHLEIVEVLLKNGADVNAWDLIGRTPLHLAALDGHLEIVEVLLEHGADVNAYDRPGHTPLHLAARRGHLEIVEVLLKYGADVNAQDKFGKTAFDISIDNGNEDLAEILQSSS
**Q.** With B7 as the binder, how does the koff [11] read?
**A.** The koff was 0.0438 s⁻¹.

**Q.** And the “EC50 of Stx2a neutralization … (cell viability)” value [2]?
**A.** Its value is greater than 1000 nM.

**Q.** And the Kd [5]?
**A.** Its Kd is 8.8 nM.

**Q.** What about the Kd [10] of the same binder?
**A.** The Kd was 8.83 nM.

B8: DARPin #16 (designed binder)
chain: DLGKKLLEAARAGQDDEVRILMANGADVNAADPAGWTPLHLAACYGHLEIVGVLLKNGADVNALDWGGWTPLHLAAVIGHLEIVGVLLKHGADVNATDLSGWTPLHLAAFRGHLEIVEVLLKHGADVNAQDKFGKTAFDISIDNGNEDLAEILQSSS
**Q.** With B8 as the binder, how does the “EC50 of Stx2a neutralization … (cell viability)” value [12] read?
**A.** Its value is greater than 1000 nM.

— patent publication US20260085097A1 (TEXAS A AND M UNIVERSITY SYSTEM, published 2026)
